Laboratory results from patent US20220363757A1 (SYMPHOGEN A S, published 2022).
Where a chain is given by its changes, count along the chain named.

B1: Fab fragment of antibody 15532 (Fab, V domains shown, not shown: a dimerising Fc or GST)
VH: QVQLQQWGAGLLRPSETLSLTCAVYGESFSGYYWNWIRQPPGKGLEWIGEINHSGSTNYNPSLKSRVTISVDTSKTQFSLKLSSVTAADTAVYYCARGWDLLDWNDYWNEYWGQGTLVTVSS
VL: EIVLTQSPATLSLSPGERATLSCRASQSVSSYLAWYQQKPGQAPRLLIYDASNRATGIPARFSGSGSGTDFTLTISSLEPEDFAVYYCQQRSNWPLTFGGGTKVEIKR
notes: monomeric Fab made by GingisKHAN digestion of the IgG1
B2: Fab fragment of antibody 15431 (Fab, V domains shown, not shown: a dimerising Fc or GST)
VH: QVQLQQSGPGLVKPSQTLSLTCAISGDSVSSNSAAWNWIRQSPSRGLEWLGRTYYRSKWYNDYAVSVKSRITINPDTSKNQFSLQLNSVTPEDTAVYYCARDDDWNDFDYWGQGTLVTVSS
VL: B1 VL
notes: as for B1
B3: Fab fragment of antibody 15011 (Fab, V domains shown, not shown: a dimerising Fc or GST)
VH: EVQLLESGGGLVQPGGSLRLSCAASGFDFRSYAMMWVRQAPGKGLEWVGGINGEVGGSNTYYAPAVKGRATISRDNSKNTLYLQMNSLRAEDTAVYYCVKGAGACGICNDDIDAWGQGTLVTVSS
VL: SYELTQDPAVSVALGQTVRITCSGAGSYAGSYYYGWHQQKPGQAPVTVIYDNDKRPSNIPDRFSGSSSGNTASLTITGAQAEDEADYYCGSTNDNDDGGLFGSGTKVTVLG
notes: as for B1
B4: Fab fragment of antibody 15572 (Fab, V domains shown, not shown: a dimerising Fc or GST)
VH: QLQLQESGPGLVKPSETLSLTCTVSGDSISSSSYYWGWIRQPPGKGLEWIGSIFYSGNTYYNPSLKSRVTISVDTSKNQFSLKLSSVTAADTAVYYCAREDDFLTDYYGAFDIWGQGTMVTVSS
VL: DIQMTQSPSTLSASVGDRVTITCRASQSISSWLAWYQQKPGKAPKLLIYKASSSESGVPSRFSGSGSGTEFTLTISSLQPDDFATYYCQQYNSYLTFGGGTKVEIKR
notes: as for B1

Key:
Assay in all cases: SPR, Fab over captured mutant LAG-3-Fc;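 also: fc fusion variants captured on anti-human IgG Fc sensor, Fab injected with association then dissociation phases, KD obtained from Langmuir one-to-one fit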
[1] = biological target: T1, human LAG-3 domain 1-2 Fc fusion, point mutation #32 H85A (human, UniProt P18627 23-266)
T1 construct: not shown: human IgG1 Fc, AA P101-K330
T1 sequence: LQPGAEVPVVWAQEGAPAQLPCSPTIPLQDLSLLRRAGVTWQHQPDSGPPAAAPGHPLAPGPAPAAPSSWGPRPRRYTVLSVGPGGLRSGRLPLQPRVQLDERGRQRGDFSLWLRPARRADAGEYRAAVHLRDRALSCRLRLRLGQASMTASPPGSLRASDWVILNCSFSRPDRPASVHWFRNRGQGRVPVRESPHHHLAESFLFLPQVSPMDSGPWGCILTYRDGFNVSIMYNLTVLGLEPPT

[2] = biological target: T2, human LAG-3 domain 1-2 Fc fusion, point mutation #80 R163A (human, UniProt P18627 23-266)
T2 construct: not shown: human IgG1 Fc, AA P101-K330
T2 sequence: T1 sequence with A63H, R141A

[3] = biological target: T3, human LAG-3 domain 1-2 Fc fusion, point mutation #45 R98A (human, UniProt P18627 23-266)
T3 construct: not shown: human IgG1 Fc, AA P101-K330
T3 sequence: T1 sequence with A63H, R76A

[4] = biological target: T4, human LAG-3 domain 1-2 Fc fusion, point mutation #68 Q128A (human, UniProt P18627 23-266)
T4 construct: not shown: human IgG1 Fc, AA P101-K330
T4 sequence: T1 sequence with A63H, Q106A

[5] = biological target: T5, human LAG-3 domain 1-2 Fc fusion, point mutation #56 G112A (human, UniProt P18627 23-266)
T5 construct: not shown: human IgG1 Fc, AA P101-K330
T5 sequence: T1 sequence with A63H, G90A

[6] = biological target: T6, human LAG-3 domain 1-2 Fc fusion, point mutation #78 R154A (human, UniProt P18627 23-266)
T6 construct: not shown: human IgG1 Fc, AA P101-K330
T6 sequence: T1 sequence with A63H, R132A

[7] = biological target: T7, human LAG-3 domain 1-2 Fc fusion, point mutation #6 T47A (human, UniProt P18627 23-266)
T7 construct: not shown: human IgG1 Fc, AA P101-K330
T7 sequence: T1 sequence with T25A, A63H

[8] = biological target: T8, human LAG-3 domain 1-2 Fc fusion, point mutation #77 R148A (human, UniProt P18627 23-266)
T8 construct: not shown: human IgG1 Fc, AA P101-K330
T8 sequence: T1 sequence with A63H, R126A

[9] = biological target: T9, human LAG-3 domain 1-2 Fc fusion, point mutation #18 P67A (human, UniProt P18627 23-266)
T9 construct: not shown: human IgG1 Fc, AA P101-K330
T9 sequence: T1 sequence with P45A, A63H

| Binder | KD mutant/KD wild type [1] | KD mutant/KD wild type [2] | KD mutant/KD wild type [3] | KD mutant/KD wild type [4] | KD mutant/KD wild type [5] | KD mutant/KD wild type [6] | KD mutant/KD wild type [7] | KD mutant/KD wild type [8] | KD mutant/KD wild type [9] | binding result [2] | binding result [3] | binding result [8] | binding result [9] |
| --- | --- | --- | --- | --- | --- | --- | --- | --- | --- | --- | --- | --- | --- |
| B1 | 7.2 fold | 2.5 fold | 1.6 fold | 0.7 fold | 1 fold | 0.8 fold | 1.5 fold | 2.9 fold | 3.8 fold | – | – | – | – |
| B2 | 0.8 fold | – | – | 0.8 fold | 0.5 fold | 1 fold | 0.9 fold | – | – | no binding (tested: 300 nM) | no binding (tested: 300 nM) | no binding (tested: 300 nM) | no binding (tested: 300 nM) |
| B3 | 0.9 fold | 0.6 fold | 1.2 fold | 1 fold | 3.1 fold | 1.2 fold | 0.9 fold | 0.7 fold | 0.6 fold | – | – | – | – |
| B4 | 0.7 fold | – | 0.9 fold | 0.9 fold | 0.5 fold | 0.8 fold | 0.6 fold | – | – | no binding (tested: 300 nM) | – | no binding (tested: 300 nM) | no binding (tested: 300 nM) |
